B1: Tripartite motif-containing protein 44, residues 174 to 218; numbered along this chain, Q96DX7 (parent)
chain: VAKRKCPDHGLDLSTYCQEDRQLICVLCPVIGAHQGHQLSTLDEA

± gives the uncertainty stated by the source.

In the data set the parent is B1. Briefly: abundance fitness (aPCA) (normalised: wild type 0, dead -1); higher = more abundant; growth selection in yeast, the domain comes from the species named. To be noted: Homo sapiens.
Take VAKRKCPDWGLDLSTYCQEDRQLICVLCPVIGAHQGHQLSTLDEA [H9W]: the abundance fitness was -1.03 ± 0.058.

For the variant VAKRKCPDVGLDLSTYCQEDRQLICVLCPVIGAHQGHQLSTLDEA [H9V], the abundance fitness was -0.986 ± 0.048.

On to VAKRKCPDRGLDLSTYCQEDRQLICVLCPVIGAHQGHQLSTLDEA [H9R], for which the abundance fitness is -0.975 ± 0.041.

On to VAKRKCPDCGLDLSTYCQEDRQLICVLCPVIGAHQGHQLSTLDEA [H9C], for which the abundance fitness is -0.103 ± 0.032.

Turning to VAKRKCPDQGLDLSTYCQEDRQLICVLCPVIGAHQGHQLSTLDEA [H9Q], the abundance fitness is -0.964 ± 0.058.

Take VAKRKCPDKGLDLSTYCQEDRQLICVLCPVIGAHQGHQLSTLDEA [H9K]: the abundance fitness was -0.995 ± 0.082.

Take VAKRKCPDIGLDLSTYCQEDRQLICVLCPVIGAHQGHQLSTLDEA [H9I]: the abundance fitness is -0.891 ± 0.22.

For the variant VAKRKCPDNGLDLSTYCQEDRQLICVLCPVIGAHQGHQLSTLDEA [H9N], the abundance fitness was -0.838 ± 0.1.

For the variant VAKRKCPDPGLDLSTYCQEDRQLICVLCPVIGAHQGHQLSTLDEA [H9P], the abundance fitness was -1.15 ± 0.092.

For the variant VAKRKCPDMGLDLSTYCQEDRQLICVLCPVIGAHQGHQLSTLDEA [H9M], the abundance fitness is -0.901 ± 0.072.

As for VAKRKCPDSGLDLSTYCQEDRQLICVLCPVIGAHQGHQLSTLDEA [H9S], the abundance fitness was -1.02 ± 0.067.

With VAKRKCPDGGLDLSTYCQEDRQLICVLCPVIGAHQGHQLSTLDEA [H9G], the abundance fitness is -0.91 ± 0.033.

Regarding VAKRKCPDEGLDLSTYCQEDRQLICVLCPVIGAHQGHQLSTLDEA [H9E], the abundance fitness was -0.863 ± 0.046.

On to VAKRKCPDAGLDLSTYCQEDRQLICVLCPVIGAHQGHQLSTLDEA [H9A], for which the abundance fitness was -1 ± 0.052.

Turning to VAKRKCPDDGLDLSTYCQEDRQLICVLCPVIGAHQGHQLSTLDEA [H9D], the abundance fitness was -0.981 ± 0.091.

For the variant VAKRKCPDFGLDLSTYCQEDRQLICVLCPVIGAHQGHQLSTLDEA [H9F], the abundance fitness was -1.24 ± 0.16.

On to VAKRKCPDTGLDLSTYCQEDRQLICVLCPVIGAHQGHQLSTLDEA [H9T], for which the abundance fitness was -0.919 ± 0.07.

In the case of VAKRKCPDHGLDLQTYCQEDRQLICVLCPVIGAHQGHQLSTLDEA [S14Q], the abundance fitness was -0.001 ± 0.034.

Regarding VAKRKCPDHGLDLGTYCQEDRQLICVLCPVIGAHQGHQLSTLDEA [S14G], the abundance fitness came out at 0.019 ± 0.026.

Consider VAKRKCPDHGLDLKTYCQEDRQLICVLCPVIGAHQGHQLSTLDEA [S14K], for which the abundance fitness is 0.014 ± 0.03.

With VAKRKCPDHGLDLPTYCQEDRQLICVLCPVIGAHQGHQLSTLDEA [S14P], the abundance fitness is -0.688 ± 0.063.

As to VAKRKCPDHGLDLATYCQEDRQLICVLCPVIGAHQGHQLSTLDEA [S14A], the abundance fitness is -0.001 ± 0.027.

VAKRKCPDHGLDLLTYCQEDRQLICVLCPVIGAHQGHQLSTLDEA [S14L]: the abundance fitness is -0.031 ± 0.028.

On to VAKRKCPDHGLDLFTYCQEDRQLICVLCPVIGAHQGHQLSTLDEA [S14F], for which the abundance fitness is -0.074 ± 0.044.

Consider VAKRKCPDHGLDLRTYCQEDRQLICVLCPVIGAHQGHQLSTLDEA [S14R], for which the abundance fitness was -0.098 ± 0.027.

For the variant VAKRKCPDHGLDLHTYCQEDRQLICVLCPVIGAHQGHQLSTLDEA [S14H], the abundance fitness is -0.014 ± 0.05.

Turning to VAKRKCPDHGLDLDTYCQEDRQLICVLCPVIGAHQGHQLSTLDEA [S14D], the abundance fitness came out at 0.006 ± 0.037.

As for VAKRKCPDHGLDLTTYCQEDRQLICVLCPVIGAHQGHQLSTLDEA [S14T], the abundance fitness was 0.01 ± 0.034.

Turning to VAKRKCPDHGLDLETYCQEDRQLICVLCPVIGAHQGHQLSTLDEA [S14E], the abundance fitness came to 0.033 ± 0.028.

Consider VAKRKCPDHGLDLITYCQEDRQLICVLCPVIGAHQGHQLSTLDEA [S14I], for which the abundance fitness amounted to 0.023 ± 0.058.

For the variant VAKRKCPDHGLDLVTYCQEDRQLICVLCPVIGAHQGHQLSTLDEA [S14V], the abundance fitness came out at 0.011 ± 0.028.

Turning to VAKRKCPDHGLDLWTYCQEDRQLICVLCPVIGAHQGHQLSTLDEA [S14W], the abundance fitness is -0.155 ± 0.03.

For the variant VAKRKCPDHGLDLNTYCQEDRQLICVLCPVIGAHQGHQLSTLDEA [S14N], the abundance fitness came to 0.094 ± 0.06.

In the case of VAKRKCPDHGLDLMTYCQEDRQLICVLCPVIGAHQGHQLSTLDEA [S14M], the abundance fitness is -0.049 ± 0.032.

Consider VAKRKCPTHGLDLSTYCQEDRQLICVLCPVIGAHQGHQLSTLDEA [D8T], for which the abundance fitness amounted to 0.051 ± 0.032.

VAKRKCPWHGLDLSTYCQEDRQLICVLCPVIGAHQGHQLSTLDEA [D8W]: the abundance fitness is -0.105 ± 0.032.

Turning to VAKRKCPYHGLDLSTYCQEDRQLICVLCPVIGAHQGHQLSTLDEA [D8Y], the abundance fitness is 0.049 ± 0.051.

On to VAKRKCPPHGLDLSTYCQEDRQLICVLCPVIGAHQGHQLSTLDEA [D8P], for which the abundance fitness was -0.827 ± 0.063.

Consider VAKRKCPNHGLDLSTYCQEDRQLICVLCPVIGAHQGHQLSTLDEA [D8N], for which the abundance fitness is -0.045 ± 0.058.

Turning to VAKRKCPQHGLDLSTYCQEDRQLICVLCPVIGAHQGHQLSTLDEA [D8Q], the abundance fitness came out at 0.028 ± 0.044.

As for VAKRKCPSHGLDLSTYCQEDRQLICVLCPVIGAHQGHQLSTLDEA [D8S], the abundance fitness was -0.03 ± 0.031.

VAKRKCPDHGPDLSTYCQEDRQLICVLCPVIGAHQGHQLSTLDEA [L11P]: the abundance fitness was -0.778 ± 0.084.

For the variant VAKRKCPDHGSDLSTYCQEDRQLICVLCPVIGAHQGHQLSTLDEA [L11S], the abundance fitness is -0.189 ± 0.034.

With VAKRKCPDHGTDLSTYCQEDRQLICVLCPVIGAHQGHQLSTLDEA [L11T], the abundance fitness was -0.147 ± 0.17.

As to VAKRKCPDHGQDLSTYCQEDRQLICVLCPVIGAHQGHQLSTLDEA [L11Q], the abundance fitness is -0.024 ± 0.03.

Take VAKRKCPDHGRDLSTYCQEDRQLICVLCPVIGAHQGHQLSTLDEA [L11R]: the abundance fitness was determined as 0 ± 0.028.

On to VAKRKCPDHGFDLSTYCQEDRQLICVLCPVIGAHQGHQLSTLDEA [L11F], for which the abundance fitness is -0.083 ± 0.039.

As to VAKRKCPDHGHDLSTYCQEDRQLICVLCPVIGAHQGHQLSTLDEA [L11H], the abundance fitness turned out to be 0.033 ± 0.05.

Take VAKRKCPDHGEDLSTYCQEDRQLICVLCPVIGAHQGHQLSTLDEA [L11E]: the abundance fitness was determined as 0.005 ± 0.032.

Consider VAKRKCPDHGMDLSTYCQEDRQLICVLCPVIGAHQGHQLSTLDEA [L11M], for which the abundance fitness was -0.05 ± 0.12.

VAKRKCPDHGVDLSTYCQEDRQLICVLCPVIGAHQGHQLSTLDEA [L11V]: the abundance fitness is -0.183 ± 0.028.

As for VAKRKCPDHGGDLSTYCQEDRQLICVLCPVIGAHQGHQLSTLDEA [L11G], the abundance fitness was -0.169 ± 0.026.

Regarding VAKRKCPDHGWDLSTYCQEDRQLICVLCPVIGAHQGHQLSTLDEA [L11W], the abundance fitness is -0.214 ± 0.028.

For the variant VAKRKCPDHGDDLSTYCQEDRQLICVLCPVIGAHQGHQLSTLDEA [L11D], the abundance fitness is -0.198 ± 0.047.

VAKRKCPDHGCDLSTYCQEDRQLICVLCPVIGAHQGHQLSTLDEA [L11C]: the abundance fitness is -0.009 ± 0.031.

Turning to VAKRKCPDHGKDLSTYCQEDRQLICVLCPVIGAHQGHQLSTLDEA [L11K], the abundance fitness came out at 0.016 ± 0.097.

On to VAKRKCPDHGYDLSTYCQEDRQLICVLCPVIGAHQGHQLSTLDEA [L11Y], for which the abundance fitness is -0.031 ± 0.04.

The values above are taken from the Human Domainome abundance scans (Beltran et al. 2025).
